Measured values as given in the DeepSol protein solubility set.

Experiment: soluble on expression in E. coli; label from the status in PepcDB or PDB records

Q: Which “soluble on expression in E. coli” value does the source give for “MSLEKLKSTEFYASQIKHCFTIPSRTAKYKGLCFELAPEVYQGMEHENFYSHQADAINSLHQGENVIITTSTSSGKSLIYQLAAIDLLLKDPESTFMYIFPTKALAQDQKRAFKVILSKIPELKNAVVDTYDGDTEPEERAYIRKNARVIFTNPDMIHTSILPNHANWRHFLYHLKLVVVDELHIYKGLFGSHVALVMRRLLRLCHCFYENSGLQFISCSATLKSPVQHMKDMFGINEVTLIHEDGSPTGAKHLVVWNPPILPQHERKRENFIRESAKILVQLILNNVRTIAFCYVRRVCELLMKEVRNIFIETGREDLVTEVMSYRGGYSASDRRKIEREMFHGNLKAVISTNALELGIDIGGLDAVLMCGFPLSMANFHQQSGRAGRRNNDSLTLVVASDSPVDQHYVAHPESLLEVNNFESYQDLVLDEGHHHHHH” here?
A: not soluble

Q: With “MSLEKLTVSDSKKLFHEQFPYVIPGLYKRIVDEMLVELNLLNHQNEFIQDDLFCVGLTETFKELTKGYKPEEHLRVLFESLCNSSNFEPKKIKEASKKTLEVYKDKSLKEISILLKQKSDSNLYSSRIMNLGIYLIIANATDFKDIKDPEKNKIISDIINKLNLSFNKAEKDIGIYKSSILKMEQAKELLQEAKIKDKKEKEGHHHHHH” as the sequence, how does the “soluble on expression in E. coli” value read?
A: soluble

Q: Which “soluble on expression in E. coli” value does the source give for “MSLEKTKLPWDEFFSLNKDINHTYFTPEDFSGDEDLIAKTTEQFVKQEIVPQMENIEQHNYKVSRQLFEKAGELGLLGIEVPEDYGGFELGKAVSGLVAEKMGYAGAFSVSFNIHAGVGTLPYIYYGTKEQKEKYLPKIASGEWIGAYALTEPNAGSDALSAKTSAVLNEEGTAWKLNGEKQWITNAHMADVYVVFAKTNKGMTAFIVERTCEGVSIGLEEKKMGIKGSSTATLILEDVVIPAENVLGEVGKGHHVALNILNFARLKLAFGNIGTAKQAIGLSVQYGKERKQFQTELVDFTMIQEKIANMIIATYGAESAAYRTAGVIDEAIHESDEDLMKKMSQFAIECALNKVNASETLAYIVDEAVQIHGGYGYMQEYEVERLYRDARISRIFEGTNEINRLTVAKMLMKQIEQLEEGHHHHHH” here?
A: not soluble

Q: With “MSLEKVIPVKKNNDYEIYIDDFGNMGEGIGKIDNFTVFVKDAVKGEKVRAKIIKVNKSFAIGKLIDIIEKSQDRTEPVCSIYKKCGGCQLQHLKYTEQLEFKKNKVVECLKRIGKLDLSSVRINETIGMEDPYFYRNKVQLPVGETAGEAKIGFYRERSHEIIEVDKCFIQDDSANEIILLIKRWIKEFNIEGYNEYSGKGTLRHIMIRKAFKTGQIMLVLVTNTENVPHKKELIHMITTEIQGIKGIIQNINNKKTNVILGQREITLWGESTIEDYIGEFKFNISSKSFFQVNPIQTEKLYSAALKYAGLTGKEVVFDAYCGTGTISLFLSQNAKKVYGVEIIPEAIENAKINAKQNGIENTEFIVGKSEEEIPKLIEKGIAPEVVVVDPPRKGCEKSLLHSIAEASPKTIVYVSCDPATLSRDLGILSELGYEVNEVQPVDMFPMTGHVETIVLIKRVDKEGHHHHHH” as the sequence, how does the “soluble on expression in E. coli” value read?
A: soluble

Q: For “MSLELNGRALSSTIAPRTQAQRILQTQKISSTDLVVVIGLGNPHLIFEVHKSLEPGQVLLLVDEYPELIFPLWDGILEPVMDVPGRHLFLGHSALNLLWNYLESLPVERVSGIRVFRNTASTALNETYYSDLEIKIRKILSSKMSDLLTKFEFERIWVRNTFVNTANFPDSKNPRTRIESLKGKFLDTPAMLVSAGPSLRSQCEWISKVRDKVFLFSCDTSFKALLKFGIVPDGVITLDAQTHSFFHFMGAESSNVPLFADLVSSPSILRSQKFTKIVHSLSAKYVVDASGEFKREVTAGSKTAEKLLGPIGDIQSGGSVATTAFDLLRNLGCKPIFLVGQDLAYSGREEGHHHHHH”, which “soluble on expression in E. coli” value is on record?
A: not soluble

Q: With “MSLELPFSNQSIIPAAHNQKDMEKILELDLTYMVMLETHVAQLKALVKYAQAGGKKVLLHADLVNGLKNDDYAIDFLCTEICPDGIISTRGNAIMKAKQHKMLAIQRLFMIDSSAYNKGVALIQKVQPDCIELLPGIIPEQVQKMTQKLHIPVIAGGLIETSEQVNQVIASGAIAVTTSNKHLWEGHHHHHH” as the sequence, how does the “soluble on expression in E. coli” value read?
A: soluble

Q: With “MSLELVSFVKSHIDQAVYFSTITSNPIEFNLPESLSLDTTDIENDIKTSCDEIFYSTGSYIPPMLNTLEQHLNLRIEYFNNLIEFTKINFNYKISPTVKLYLIEKISILKCCLALFKYISDKAILSNIWRDLVLNSFNDSSLEEFVLGKLDEFPRLFTIFLNDLSAKIVGFNDVEEKVKIVDLLITCVYDAVLENCEKSIRYDALQLDPLELDNKPMWFTNLTNIKAMNNIFFSFIFPDNDLSVENKQRLLTVVKLLYYVINQNMIWHKSMKQIETEEYKEVEALYNDNHANWIHVLCNIGVHEEALQICEFYHDLGGLVEILEKLDFEISRELYDQYFKMFGYEFATILFEYYINAKDLKALFFKFPNHHDLLNKFLLSSPPKYYKYAWIQEIIDNDYRKASDILTTLSVGEAGDGCEISERQLHLNIAKLSGLVDENFDANQMIEIQRDIDTIDHQTRIKKLLEEDPTGISMNQAFANNEFGEKFQETKYCIQNDKSINIKYIIDMLSMMDSVENLYEALKLTCIYRHSLGYEVSKYFQQSIWRRCIIEESKDGVIQLEGENSKIYQLLVKYFEGKLYEYDCKLPFVSFLMDRIGISMNFLSIIYGNDNNVLVSISDSIEREYHDLIRIGDTLESQLSTIIGSANEGHHHHHH” as the sequence, how does the “soluble on expression in E. coli” value read?
A: not soluble

Q: With “MSLENHWYEVKQTQSEGFFKDLNGSRTKESISYFPKIYYRMKDGLLSIRVQISLGKYQDQLLKLEKKLESGLYCELVEKELKDSYVDYTLLYDMIANRIGIEEAVVENGALRLMKNQVWAYDFLPHMLIAGGTGGGKTYFLLTIIEALLKSDAELFILDPKNADLADLGTIMTHVYSQKEQISACVEDFYERMMVRSRLMKEMPNYKTGENYAYLGLSPNFLVFDEYVAYMEMLTTKESAVILNKLKQIVMLGRQSGFFLILACQRPDAKYLGDGIRDQFNFRVALGRMSELGYSMMFGEVDKIFFMKQIKGRGYVDTGGGVVSEFYTPLVPKGYDFLESTKTIVQNNINEGHHHHHH” as the sequence, how does the “soluble on expression in E. coli” value read?
A: soluble

Q: For “MSLENPTSIQIWHYYNGQQKMAFDKLVKEFNDTVGAEKGIIVEAFSQGNVVDLSEKVLDSANKKVGSEDVPNIFAAYSDTAYEMDKLGLLVDMDKYISKEELNEYIDEYVEEGRINSKDEFKLFPIAKSTEILMLNKTDWDKFAKATNSNINDIKTIEGLVETSKKYYEWTDSLTKEPNDGKAFFGRDALANYIIIGSKQLGVEIFSVKDGKVTLNIDEKVMKKLWDNFYVPYINGYFASYGKFRSDDAKTGDILALVGSSSGAAYFPDRVMLNDNESYNIETSVFQAPRFKGEGKYAVQQGAGMAVTKSTKEEEYASVEFLKWFTDKEPNIKFSIASGYLPVKKKTNDLDVIKEVMKKDNLSLSDKVEGSIASSIEQINSCNLYTNKAFDGGTKARQILEYSMLDKAKEDSNKINELVKSGTSKKDAVAQFNNDKNFKTWFEIFKAELENAIKEGHHHHHH”, which “soluble on expression in E. coli” value is on record?
A: soluble

Q: Which “soluble on expression in E. coli” value does the source give for “MSLENTTQIPESELHNLGLTDEEIQEFNQYLIDESLFQETVETSPIVVSDNEDAAQDPGFGLFTTNPVKHTDEHIGALYFSDLPGISNLTCTANYIGGKFWTTAHHCVEGRSRFVGFIEQSDGQYAGIEHVYTKSSDYDIALIKVGSGIDAEQFSLTRSRPAVGKMLEVVGFAVVNPFSSRATMEVTNSNTVANYPMSNLYYKDVFSAKPAGSFPYVISGGDSGAAVWSGETMYGIASGSNGSTKNLAANVGPHVSWIEQTMQNNSNSSPYEILQAFRGGLATSYPKYNQIRDLVDSSEGHHHHHH” here?
A: soluble

Q: For “MSLEQVEILRKFIQRVQAMKSPDHNGEDNFARDFMRLRRLSTKYRTEKIYPTATGEKEENVKKNRYKDILPFDHSRVKLTLKTPSQDSDYINANFIKGVYGPKAYVATQGPLANTVIDFWRMIWEYNVVIIVMACREFEMGRKKCERYWPLYGEDPITFAPFKISCEDEQARTDYFIRTLLLEFQNESRRLYQFHYVNWPDHDVPSSFDSILDMISLMRKYQEHEDVPICIHCSAGCGRTGAICAIDYTWNLLKAGKIPEEFNVFNLIQEMRTQRHSAVQTKEQYELVHRAIAQLFEKQLQLYEIHGAQKIADGVNEINTENEGHHHHHH”, which “soluble on expression in E. coli” value is on record?
A: soluble

Q: For “MSLERPLCISYIRFSKATQAEGSSLERQLQLSRTYAEEHGLVLDDKHSYQDLGKSAFTSEHVKEGEFGVFLEFVKQGRVPKGSVLLVESLDRLSRESVLTAFKQFQEILDAGIKIVTLSDKMEYTKEGFEANIGNIFISLGIMARANEESLRKSERICAAWRLKRKNLHNIKLTANCPGWLELTPDKKDFILKEDRVEIVKQIFELSLSGLGVKAISTILNKQKIEPFRSKIGWYQTTVRKILSNSAVIGEFQPHVFGSKHSKPVPDGELIKDYFPPIIDTDTFYAVQAKLKNGAHRPGRTAKVENLFSGYTRCGYCGSRMDVVARHNVGGEVRYLVCDSARRGVKCSYISMKCNEIEKAFFEYCREIDIRYVLRAEQQADQNRLNELRKSLTARNGKLMKVQKQIDMLNVFLDDITERAELEHYHEQIKKKLEEKTNLSEEIEKLSKGICIAEYDNNNIDVRVQNLLTLDKAQNKSVKEDDKIMFRIRLRDELRQIISQILVYPRGSVFSDEQIEQKERDYEIKIKSASDSEKHILKHEKTIDLDGMRQSQQNTKDDRFFVVRFKNGNYRTIKYDKKQQAYRVTSELINDKLNWWMGNKEMAPIFREEEELHPFETEFELDSNEGHHHHHH”, which “soluble on expression in E. coli” value is on record?
A: not soluble

Q: With “MSLESIKVGMIGYKFMGKAHSHAYRDLPMFFPDHLRPEMKVICGRNPEGVAQAASQYGWEEYTTNWKDLIRRDDIDLIDINAPSDVHKEITLAAAQAGKHIFCEKPLALTLQDSRHMLEAVEAAGVKHMVGFNYRFTPAVLLAKKLIAEGRLGDIYHFRAWFLQDWIVAPDFPLVWRLQKDIAGSGAHGDLGAHLIDMAHFLIGDITEVIGMNETFIKERPLPTEMTGLSGRGSNDHTVPKGPVTVDDATLFMARFANGALGSFEATRFATGHRSTNSFEINGSKGSVIFDFERLNELQVYFTDDQDDVQGFRRVLATDGAHAYSDRWWPAGHTIGYEHTFIHEIAELMESLQEGRQPVPNFKDGVKCQQVLEAVDLSIAKREWIQVSEGHHHHHH” as the sequence, how does the “soluble on expression in E. coli” value read?
A: soluble

Q: For “MSLEYAKSLFERHLDIASKFRPKNPYLKTAYMNVLLSLTQTICQSPQELSNDDLSDAGAALAYLREAGFELDWLEKKLNEVKEKKKKEEACLAEIQDMDEHVKPLKKKYLDLEAQIDKKKAELLAARAPLSLNDDNVVSMFCDSAETQQWFDKNAPDWGFTEMISLTELHAEEGLLRNGELTVVAKVEVLEVVGKLDVSEESSPVIETIDVNGFQVLPSEGHHHHHH”, which “soluble on expression in E. coli” value is on record?
A: soluble

Q: For “MSLFCLPLEMRNHWHFFSLFTNLPRKSKWHRASEFFFPLLMSEIEDFR”, which “soluble on expression in E. coli” value is on record?
A: soluble

Q: For “MSLFPGDIEELARRIITDFTPLGLMVSTAESCTGGLIAGALTEIAGSSAVVDRGFVTYTNDAKRDMLGVGTETLTTFGAVSRQTALQMAHGALYRSRANFAVAVTGIAGPGGGSAEKPVGLVHLATKARNGNVLHHEMRYGDIGRTEIRLATVRTALEMLIALNQAGSV”, which “soluble on expression in E. coli” value is on record?
A: soluble

Q: For “MSLGADRSAPMTARIDQLLLERLKSAGVEPAPAADDGEFLRRAYLDLSGTIPPVAITRDYLADSSPAKRRQLIERLLASPAFASHLASTWREIILKPTDDFQQLQNQFALQAWLREQFSENARYDRIVEQFITASSEQDGPVYFYDALDLKPEQLAAETSRIFLGLHIQCAECHDHPFDDWKQRDFWGYAAFFARVAKRDSAMGRISLVDQEMGEVKIPESEETVAPLYPGGSAPSDRFGGTRRQKLAVWMVARDNPYTARRAVNWAWAHLFGRGLVEPVDDLSPLNAPSHPALMEELTQYFIDSGYDLRQLLRTLAMTDAYARSSQNVDGQRPELFANMAIKSLSPEQLYDAILRLGLIRETVGDLSSQAPQPFDRSQQRLQFVARMRTVSLDRTDFETGAPQALALMNGPPVSLATAPETSGFLKSLEAPFFSDEQRVELIALAAYSRQPTAEERQRFSEYLATASPNEKKQALGDLLWAVAASAEFMLNEGHHHHHH”, which “soluble on expression in E. coli” value is on record?
A: not soluble
